The test deals with T1, Native purified human beta2-glycoprotein I (β2GPI) (human, UniProt P02749 20-345).
T1 sequence (looked up): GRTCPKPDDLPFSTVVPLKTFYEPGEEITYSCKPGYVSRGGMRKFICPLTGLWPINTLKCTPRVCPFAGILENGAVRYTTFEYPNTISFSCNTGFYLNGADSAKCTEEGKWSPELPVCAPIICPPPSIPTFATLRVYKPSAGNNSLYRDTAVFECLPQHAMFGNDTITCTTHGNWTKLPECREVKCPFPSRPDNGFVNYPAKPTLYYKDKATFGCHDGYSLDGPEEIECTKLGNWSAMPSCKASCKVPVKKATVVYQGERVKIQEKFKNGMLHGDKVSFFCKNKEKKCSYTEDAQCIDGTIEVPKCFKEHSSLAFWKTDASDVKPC
Nature of the test: ELISA.

B1: MBP-Ro60 aa 82–244 (domain or fragment)
chain: not shown
modifications: biotin (Sulfo-NHS-Biotin)
With B1, the binding result is reported as “binds”.

Source of the values: publication PMC3129650 (Journal of immunology (Baltimore, Md. : 1950), 2011).
